Source: PMC13082787, “A lipoprotein partner for the Escherichia coli outer membrane protein TolC” (eLife, 2026)
Values joined by “and” are separate entries in the source; they are usually repeats but may differ in a detail not shown here. Equal values may be shown once.

Key:
[1] = target: T1, Detergent-purified FLAG-tagged TolC (E. coli, UniProt P02930 23-493); test: ITC; ITC200, 25°C; 230 µM N-terminally His-tagged soluble YbjP injected into 40 µM TolC; 20 mM HEPES pH 7.5, 200 mM NaCl, 0.03% DDM; single-site model; conditions: both partners purified
T1 construct: also called TolC-FLAG; source: detergent-purified
T1 sequence (looked up): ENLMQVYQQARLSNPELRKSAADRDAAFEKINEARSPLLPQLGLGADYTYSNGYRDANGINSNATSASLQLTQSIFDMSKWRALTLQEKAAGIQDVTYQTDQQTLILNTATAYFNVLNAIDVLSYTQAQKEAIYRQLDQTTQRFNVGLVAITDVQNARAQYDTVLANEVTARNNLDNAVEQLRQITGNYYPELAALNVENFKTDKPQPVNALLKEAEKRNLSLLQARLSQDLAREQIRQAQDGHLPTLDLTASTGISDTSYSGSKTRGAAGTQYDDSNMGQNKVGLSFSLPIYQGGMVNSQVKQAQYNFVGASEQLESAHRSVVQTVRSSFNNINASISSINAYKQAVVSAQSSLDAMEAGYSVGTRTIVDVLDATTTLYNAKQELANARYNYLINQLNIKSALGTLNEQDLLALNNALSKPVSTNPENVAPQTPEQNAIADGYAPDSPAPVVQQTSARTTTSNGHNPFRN

[2] = target: T2, TolC-FLAG (DDM-purified full-length TolC with a C-terminal FLAG-tag) (E. coli, UniProt P02930 23-493); test: ITC; N-terminally His-tagged YbjPs at 230 µM injected into 40 µM TolC-FLAG in the cell; 25°C; 20 mM HEPES pH 7.5, 200 mM NaCl, 0.03% (wt/vol) DDM; single-site binding model; two independent measurements; conditions: both partners purified
T2 construct: also called FLAG-tagged TolC; source: DDM-purified TolC-FLAG; not shown: FLAG, C-terminal, kept
T2 sequence (looked up): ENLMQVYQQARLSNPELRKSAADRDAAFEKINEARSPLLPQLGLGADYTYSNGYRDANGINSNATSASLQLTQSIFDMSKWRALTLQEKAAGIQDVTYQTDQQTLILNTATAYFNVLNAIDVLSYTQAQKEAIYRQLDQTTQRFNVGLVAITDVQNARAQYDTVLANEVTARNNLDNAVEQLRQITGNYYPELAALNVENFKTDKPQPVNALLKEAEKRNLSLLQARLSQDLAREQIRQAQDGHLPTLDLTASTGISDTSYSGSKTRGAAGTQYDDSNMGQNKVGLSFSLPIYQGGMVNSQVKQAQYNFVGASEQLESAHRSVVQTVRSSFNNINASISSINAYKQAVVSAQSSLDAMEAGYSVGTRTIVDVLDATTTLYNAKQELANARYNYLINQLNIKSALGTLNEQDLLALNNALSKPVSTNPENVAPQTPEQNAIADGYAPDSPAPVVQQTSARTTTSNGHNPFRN

B1: Soluble YbjP (D28-R171) with an N-terminal His-tag (domain or fragment, E. coli, UniProt P75818 28-171, looked up)
chain: DNGTRSGPCVEGGPDNVAQQFYDYRILHRSNDITALRPYLSDKLATLLSDASRDNNHRELLTNDPFSSRTTLPDSAHVASASTIPNRDARNIPLRVDLKQGDQGWQDEVLMIQEGQCWVIDDVRYLGGSVHATAGTLRQSIENR
notes: also called YbjPs; YbjP_(28-171); not shown: His tag, N-terminal, kept
Q: For B1, which Kd [1] is on record?
A: ~4 µM

B2: soluble YbjP (YbjPs), residues 28-171, N-terminally His-tagged (domain or fragment, E. coli, UniProt P75818 28-171, looked up)
chain: DNGTRSGPCVEGGPDNVAQQFYDYRILHRSNDITALRPYLSDKLATLLSDASRDNNHRELLTNDPFSSRTTLPDSAHVASASTIPNRDARNIPLRVDLKQGDQGWQDEVLMIQEGQCWVIDDVRYLGGSVHATAGTLRQSIENR
notes: also called YbjP_(28-171); YbjP soluble; source: E. coli BL21 (DE3), purified from the cytoplasm (HisTrap FF, dialysis); not shown: His-tag, N-terminal, kept
Q: Which results are given for B2?
A: Kd [2]: 4.1 µM and 5.9 µM and 5 µM; stoichiometry N [2]: 0.64 and 0.42 and 0.53
